From the Human Domainome abundance scans (Beltran et al. 2025) come the findings set out here.

B1: Cell division cycle and apoptosis regulator protein 1, residues 625 to 674; numbered along this chain, Q8IX12 (parent)
chain: ISTPTHWSKLDPKTMKVNDLRKELESRALSSKGLKSQLIARLTKQLKVEE

± gives the uncertainty stated by the source.

The variants in the data set derive from B1. As to the kind of experiment: abundance fitness (aPCA) (normalised: wild type 0, dead -1); higher = more abundant; growth selection in yeast, the domain comes from the species named. Conditions: Homo sapiens.
Turning to ISTPTHWSKLDPKTMKVNDLRKELESRALSSKGLKSQLIARLTKQLKREE [V48R], the abundance fitness is -0.02 ± 0.036.
Under ISTPTHWSKLDPKTMKVNDLRKELESRALSSKGLKSQLIARLTKQLKFEE [V48F] stands 0.018 ± 0.074.
Consider ISTPTHWSKLDPKTMKVNDLRKELESRALSSKGLKSQLIARLTKQLKQEE [V48Q], for which the abundance fitness was -0.06 ± 0.042.
Under ISTPTHWSKLDPKTMKVNDLRKELESRALSSKGLKSQLIARLTKQLKIEE [V48I] stands 0.054 ± 0.059; under ISTPTHWSKLDPKTMKVNDLRKELESRALSSKGLKSQLIARLTKQLKTEE [V48T], -0.073 ± 0.055.
Under ISTPTHWSKLDPKTMKVNDLRKELESRALSSKGLKSQLIARLTKQLKSEE [V48S] stands -0.059 ± 0.033; under ISTPTHWSKLDPKTMKVNDLRKELESRALSSKGLKSQLIARLTKQLKLEE [V48L], -0.06 ± 0.045; under ISTPTHWSKLDPKTMKVNDLRKELESRALSSKGLKSQLIARLTKQLKDEE [V48D], -0.114 ± 0.067.
As for ISTPTHWSKLDPKTMKVNDLRKELESRALSSKGLKSQLIARLTKQLKAEE [V48A], the abundance fitness was -0.117 ± 0.043.
As for ISTPTHWSKLDPKTMKVNDLRKELESRALSSKGLKSQLIARLTKQLKKEE [V48K], the abundance fitness worked out at 0.009 ± 0.053.
Consider ISTPTHWSKLDPKTMKVNDLRKELESRALSSKGLKSQLIARLTKQLKCEE [V48C], for which the abundance fitness is -0.113 ± 0.038.
ISTPTHWSKLDPKTMKVNDLRKELESRALSSKGLKSQLIARLTKQLKEEE [V48E]: the abundance fitness was -0.023 ± 0.051.
For the variant ISTPTHWSKLDPKTMKVNDLRKELESRALSSKGLKSQLIARLTKQLKNEE [V48N], the abundance fitness is 0.031 ± 0.046.
The result for ISTPTHWSKLDPKTMKVNDLRKELESRALSSKGLKSQLIARLTKQLKMEE [V48M] reads -0.092 ± 0.069; that for ISTPTHWSKLDPKTMKVNDLRKELESRALSSKGLKSQLIARLTKQLKHEE [V48H], -0.106 ± 0.07; that for ISTPTHWSKLDPKTMKVNDLRKELESRALSSKGLKSQLIARLTKQLKGEE [V48G], -0.154 ± 0.04.
For ISTPTHWSKLDPKTMKVNDLRKELESRALSSKGLKSQLIARLTKQLKYEE [V48Y], the abundance fitness is -0.207 ± 0.082.
Regarding ISTPTHWSKLDPKTMKVNDLRKELESRALSSKGLKSQLIARLTKQLKPEE [V48P], the abundance fitness was -0.795 ± 0.046.
Consider ISTPTHWSKLDPKTMKVNDLRKELESRALSSKGLKSQLIARLTKQLKWEE [V48W], for which the abundance fitness was -0.178 ± 0.05.
The result for ISTPTHWSKLDPKTMKVNDLRKELESRALSSKGLKSQLIARLTKQMKVEE [L46M] reads -0.023 ± 0.055.
Take ISTPTHWSKLDPKTMKVNDLRKELESRALSSKGLKSQLIARLTKQNKVEE [L46N]: the abundance fitness is -0.744 ± 0.14.
In the case of ISTPTHWSKLDPKTMKVNDLRKELESRALSSKGLKSQLIARLTKQSKVEE [L46S], the abundance fitness is -0.676 ± 0.04.
With ISTPTHWSKLDPKTMKVNDLRKELESRALSSKGLKSQLIARLTKQPKVEE [L46P], the abundance fitness was -0.822 ± 0.066.
Consider ISTPTHWSKLDPKTMKVNDLRKELESRALSSKGLKSQLIARLTKQTKVEE [L46T], for which the abundance fitness was -0.467 ± 0.057.
For ISTPTHWSKLDPKTMKVNDLRKELESRALSSKGLKSQLIARLTKQQKVEE [L46Q], the abundance fitness is -0.335 ± 0.059.
The result for ISTPTHWSKLDPKTMKVNDLRKELESRALSSKGLKSQLIARLTKQYKVEE [L46Y] reads -0.617 ± 0.11.
With ISTPTHWSKLDPKTMKVNDLRKELESRALSSKGLKSQLIARLTKQWKVEE [L46W], the abundance fitness was -0.805 ± 0.035.
For ISTPTHWSKLDPKTMKVNDLRKELESRALSSKGLKSQLIARLTKQVKVEE [L46V], the abundance fitness is -0.258 ± 0.035.
Take ISTPTHWSKLDPKTMKVNDLRKELESRALSSKGLKSQLIARLTKQRKVEE [L46R]: the abundance fitness was -0.554 ± 0.044.
The result for ISTPTHWSKLDPKTMKVNDLRKELESRALSSKGLKSQLIARLTKQLKVEH [E50H] reads 0.003 ± 0.16; that for ISTPTHWSKLDPKTMKVNDLRKELESRALSSKGLKSQLIARLTKQLKVED [E50D], -0.495 ± 0.11.
Regarding ISTPTHWSKLDPKTMKVNDLRKELESRALSSKGLKSQLIARLTKQLKVEM [E50M], the abundance fitness was -0.641 ± 0.16.
Turning to ISTPTHWSKLDPKTMKVNDLRKELESRALSSKGLKSQLIARLTKQLKVEA [E50A], the abundance fitness was -0.21 ± 0.079.
As for ISTPTHWSKLDPKTMKVNDLRKELESRALSSKGLKSQLIARLTKQLKVEW [E50W], the abundance fitness is -0.173 ± 0.12.
Regarding ISTPTHWSKLDPKTMKVNDLRKELESRALSSKGLKSQLIARLTKQLKVET [E50T], the abundance fitness was -0.535 ± 0.26.
The result for ISTPTHWSKLDPKTMKVNDLRKELESRALSSKGLKSQLIARLTKQLKVEI [E50I] reads 0.068 ± 0.16; that for ISTPTHWSKLDPKTMKVNDLRKELESRALSSKGLKSQLIARLTKQLKVEG [E50G], -0.228 ± 0.037; that for ISTPTHWSKLDPKTMKVNDLRKELESRALSSKGLKSQLIARLTKQLKVEQ [E50Q], -0.064 ± 0.083.
Under ISTPTHWSKLDPKTMKVNDLRKELESRALSSKGLKSQLIARLTKQLKVEN [E50N] stands -0.332 ± 0.095.
Regarding ISTPTHWSKLDPKTMKVNDLRKELESRALSSKGLKSQLIARLTKQLKVEV [E50V], the abundance fitness was -0.231 ± 0.035.
On to ISTPTHWSKLDPKTMKVNDLRKELESRALSSKGLKSQLIARLTKQLKVER [E50R], for which the abundance fitness is -0.27 ± 0.068.
ISTPTHWSKLDPKTMKVNDLRKELESRALSSKGLKSQLIARLTKQLTVEE [K47T]: the abundance fitness was -0.131 ± 0.062.
The result for ISTPTHWSKLDPKTMKVNDLRKELESRALSSKGLKSQLIARLTKQLAVEE [K47A] reads -0.146 ± 0.045; that for ISTPTHWSKLDPKTMKVNDLRKELESRALSSKGLKSQLIARLTKQLFVEE [K47F], -0.489 ± 0.095.
On to ISTPTHWSKLDPKTMKVNDLRKELESRALSSKGLKSQLIARLTKQLEVEE [K47E], for which the abundance fitness was -0.23 ± 0.05.
For the variant ISTPTHWSKLDPKTMKVNDLRKELESRALSSKGLKSQLIARLTKQLRVEE [K47R], the abundance fitness was -0.083 ± 0.029.
The result for ISTPTHWSKLDPKTMKVNDLRKELESRALSSKGLKSQLIARLTKQLPVEE [K47P] reads -0.806 ± 0.095.
The result for ISTPTHWSKLDPKTMKVNDLRKELESRALSSKGLKSQLIARLTKQLDVEE [K47D] reads -0.204 ± 0.05.
For the variant ISTPTHWSKLDPKTMKVNDLRKELESRALSSKGLKSQLIARLTKQLHVEE [K47H], the abundance fitness was -0.212 ± 0.059.
In the case of ISTPTHWSKLDPKTMKVNDLRKELESRALSSKGLKSQLIARLTKQLQVEE [K47Q], the abundance fitness is -0.196 ± 0.047.
For the variant ISTPTHWSKLDPKTMKVNDLRKELESRALSSKGLKSQLIARLTKQLGVEE [K47G], the abundance fitness is -0.128 ± 0.034.
Regarding ISTPTHWSKLDPKTMKVNDLRKELESRALSSKGLKSQLIARLTKQLVVEE [K47V], the abundance fitness was -0.168 ± 0.037.
The result for ISTPTHWSKLDPKTMKVNDLRKELESRALSSKGLKSQLIARLTKQLIVEE [K47I] reads -0.179 ± 0.06; that for ISTPTHWSKLDPKTMKVNDLRKELESRALSSKGLKSQLIARLTKQLMVEE [K47M], -0.266 ± 0.053.
